Reference: patent US11130803B2, “Isoform-selective TGFβ1 inhibitors and use thereof” (Scholar Rock, Inc., priority 2018, dated 2021)
Changes are numbered by the printed parent chain. Read-outs that look alike come from different tables or passages of the source.

B1: Ab12: monoclonal antibody; VH SEQ ID NO: 237, VL SEQ ID NO: 241 (antibody, V domains shown)
VH: QVQLVESGGGVVQPGRSLRLSCAASGFTFSDYAMVWVRQAPGKGLEWVSAISGSGFTTYYADSVKGRFTISRDNSKNTLYLQMNSLRAEDTAVYYCARVSSGHWDFDYWGQGTLVTVSS
VL: DIQLTQSPSSLSASVGDRVTITCRASQSISSYLNWYQQKPGKAPKLLIYAASNLQSGVPSRFSGSGSGTDFTLTISSLQPEDFATYYCQQTYTVPLTFGGGTKVEIK
B2: Ab19: monoclonal antibody; VH SEQ ID NO: 250, VL SEQ ID NO: 241 (antibody, V domains shown)
VH: B1 VH with D31S, Y32F, V35T, F56A, T57A, Y60F, Y108E
VL: B1 VL

Key:
[1] = test system: matrix-associated (LTBP1/LTBP3) and cell-associated (GARP/LRRC33) proTGFβ1 complexes; assay: Octet: average KD and fold bias, matrix- vs cell-associated complexes; type: binding, human; conditions: for Kd: average KD of (E) and (F), cell-associated complexes, read-out: (G) Cell AVRG; for (H) G/D (fold bias): ratio of average KD cell-associated / matrix-associated
Method in brief: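 Monoclonal antibodies were measured for binding affinity, expressed as KD, to cell-surface or cell-associated proTGFβ1 complexes (GARP and LRRC33). The KD values for the two complexes were averaged to give one value for cell-associated affinity. That average was then divided by the matrix-associated average to express fold bias between the complex types.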

[2] = target: T1, recombinant human LTBP3-proTGFβ1 complex (Homo sapiens, UniProt P01137); assay: Octet (Biolayer Interferometry) in vitro kinetic binding; conditions: in M
T1 construct: made in house; host or cells: Expi293F cells, transient co-transfection
Method in brief: (§1)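 Antibody binding kinetics (KD) were determined by biolayer interferometry (Octet QKe) using streptavidin-coated biosensors. Biotinylated human presenting molecule–proTGFβ1 complexes were presented at […].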

[3] = target: T2, recombinant human GARP-proTGFβ1 complex (Homo sapiens, UniProt P01137); assay: as above; conditions: in M
T2 construct: made in house
Method in brief: as §1

[4] = target: T3, recombinant human LTBP1-proTGFβ1 complex (Homo sapiens, UniProt P01137); assay: as above; conditions: in M
T3 construct: made in house; host or cells: Expi293F cells, transient co-transfection
Method in brief: as §1

[5] = target: T4, recombinant human LRRC33-proTGFβ1 complex (Homo sapiens, UniProt P01137); assay: as above; conditions: in M
T4 construct: made in house
Method in brief: as §1

[6] = test system: matrix-associated (LTBP1/LTBP3) and cell-associated (GARP/LRRC33) proTGFβ1 complexes; assay: Octet: average KD and fold bias, matrix- vs cell-associated complexes; type: binding, human; conditions: average KD of (B) and (C), read-out: (D) ECM AVRG
[7] = test system: hLTBP1-/hLTBP3-proTGFβ1 vs hGARP-/hLRRC33-proTGFβ1 complexes; assay: Solution equilibrium titration: relative affinity (bias) LTBP complexes vs cell-associated complexes; type: binding, human; conditions: MSD-SET; for (H) G/D (fold bias): ratio of average KD cell-associated / matrix-associated
Source text: Context-biased: As used herein, “context-biased antibodies” refer to a type of conformational antibodies that binds an antigen with differential affinities when the antigen is associated with (i.e., bound to or attached to) an interacting protein or a fragment thereof. Thus, a context-biased antibody that specifically binds an epitope within proTGFβ1 may bind LTBP1-proTGFβ1, LTBP3-proTGFβ1, GARP-proTGFβ1 and LRRC33-proTGFβ1 with different affinities. […] Relative affinities of [matrix-associated complexes]: [cell-associated complexes] may be obtained by taking average KD values of the former, taking average KD values of the latter, and calculating the ratio of the two, as exemplified herein.
In a yet further aspect, the present disclosure provides context-biased TGFβ1 inhibitors. The context-biased antibodies include LTBP-biased antibodies with higher affinities for ECM-associated LLCs than for cell-associated LLCs wherein the affinities are measured at equilibrium.

[8] = average KD of (B) and (C), read-out: (D) ECM AVRG
[9] = average KD of (E) and (F), read-out: (G) Cell AVRG

T3 sequence (P01137 30-390): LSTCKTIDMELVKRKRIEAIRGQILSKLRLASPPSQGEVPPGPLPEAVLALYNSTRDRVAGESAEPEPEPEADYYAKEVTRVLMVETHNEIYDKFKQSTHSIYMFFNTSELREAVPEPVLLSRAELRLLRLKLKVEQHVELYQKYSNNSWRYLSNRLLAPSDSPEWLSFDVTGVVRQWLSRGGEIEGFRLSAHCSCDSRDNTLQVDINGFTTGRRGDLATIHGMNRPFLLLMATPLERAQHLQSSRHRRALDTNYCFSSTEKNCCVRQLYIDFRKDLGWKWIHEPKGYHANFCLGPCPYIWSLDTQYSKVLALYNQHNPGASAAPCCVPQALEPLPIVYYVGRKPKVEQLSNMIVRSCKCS
T3 sequence (Q14766 873-1507 partner): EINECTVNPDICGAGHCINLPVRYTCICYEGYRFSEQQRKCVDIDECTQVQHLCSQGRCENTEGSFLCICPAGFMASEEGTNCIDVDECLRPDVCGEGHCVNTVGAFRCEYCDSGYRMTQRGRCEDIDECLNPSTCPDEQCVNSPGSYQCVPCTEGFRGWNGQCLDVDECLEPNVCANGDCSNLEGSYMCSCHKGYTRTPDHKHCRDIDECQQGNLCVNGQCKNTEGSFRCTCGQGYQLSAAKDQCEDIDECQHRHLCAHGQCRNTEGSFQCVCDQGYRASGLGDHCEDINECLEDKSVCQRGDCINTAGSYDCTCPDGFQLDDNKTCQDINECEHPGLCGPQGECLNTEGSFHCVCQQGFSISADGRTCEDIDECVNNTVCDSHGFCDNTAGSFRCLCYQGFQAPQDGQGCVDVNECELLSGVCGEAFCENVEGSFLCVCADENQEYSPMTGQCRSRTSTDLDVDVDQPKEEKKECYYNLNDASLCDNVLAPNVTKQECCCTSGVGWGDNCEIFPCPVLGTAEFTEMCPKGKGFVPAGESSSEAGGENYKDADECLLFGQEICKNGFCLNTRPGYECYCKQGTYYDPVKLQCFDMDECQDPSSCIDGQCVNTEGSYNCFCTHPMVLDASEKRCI
T1 sequence (P01137 30-390): as the sequence (P01137 30-390) above
T1 sequence (Q9NS15 866-1039 partner limits assumed): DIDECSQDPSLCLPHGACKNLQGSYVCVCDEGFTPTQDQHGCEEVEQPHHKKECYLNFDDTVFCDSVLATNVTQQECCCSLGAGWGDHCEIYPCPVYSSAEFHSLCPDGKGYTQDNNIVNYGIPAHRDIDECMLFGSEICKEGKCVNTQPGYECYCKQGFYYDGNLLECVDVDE
T2 sequence (P01137 30-390): as the sequence (P01137 30-390) above
T2 sequence (Q14392 20-627 partner limits assumed): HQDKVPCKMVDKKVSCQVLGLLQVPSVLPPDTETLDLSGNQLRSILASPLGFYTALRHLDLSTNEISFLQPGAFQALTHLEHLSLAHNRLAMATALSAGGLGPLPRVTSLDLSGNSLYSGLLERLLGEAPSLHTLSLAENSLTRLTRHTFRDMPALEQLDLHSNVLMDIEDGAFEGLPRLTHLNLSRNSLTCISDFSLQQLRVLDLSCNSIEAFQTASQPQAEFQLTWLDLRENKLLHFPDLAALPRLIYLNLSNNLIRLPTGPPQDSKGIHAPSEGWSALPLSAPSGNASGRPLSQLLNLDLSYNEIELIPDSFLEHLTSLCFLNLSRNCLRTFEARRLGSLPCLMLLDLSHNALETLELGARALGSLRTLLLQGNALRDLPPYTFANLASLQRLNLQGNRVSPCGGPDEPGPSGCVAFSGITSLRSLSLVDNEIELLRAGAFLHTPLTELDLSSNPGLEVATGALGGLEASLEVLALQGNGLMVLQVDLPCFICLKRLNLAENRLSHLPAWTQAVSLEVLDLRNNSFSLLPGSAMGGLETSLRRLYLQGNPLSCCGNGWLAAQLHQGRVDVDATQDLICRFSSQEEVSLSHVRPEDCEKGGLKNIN
T4 sequence (P01137 30-390): as the sequence (P01137 30-390) above
T4 sequence (Q86YC3 19-650 partner limits assumed): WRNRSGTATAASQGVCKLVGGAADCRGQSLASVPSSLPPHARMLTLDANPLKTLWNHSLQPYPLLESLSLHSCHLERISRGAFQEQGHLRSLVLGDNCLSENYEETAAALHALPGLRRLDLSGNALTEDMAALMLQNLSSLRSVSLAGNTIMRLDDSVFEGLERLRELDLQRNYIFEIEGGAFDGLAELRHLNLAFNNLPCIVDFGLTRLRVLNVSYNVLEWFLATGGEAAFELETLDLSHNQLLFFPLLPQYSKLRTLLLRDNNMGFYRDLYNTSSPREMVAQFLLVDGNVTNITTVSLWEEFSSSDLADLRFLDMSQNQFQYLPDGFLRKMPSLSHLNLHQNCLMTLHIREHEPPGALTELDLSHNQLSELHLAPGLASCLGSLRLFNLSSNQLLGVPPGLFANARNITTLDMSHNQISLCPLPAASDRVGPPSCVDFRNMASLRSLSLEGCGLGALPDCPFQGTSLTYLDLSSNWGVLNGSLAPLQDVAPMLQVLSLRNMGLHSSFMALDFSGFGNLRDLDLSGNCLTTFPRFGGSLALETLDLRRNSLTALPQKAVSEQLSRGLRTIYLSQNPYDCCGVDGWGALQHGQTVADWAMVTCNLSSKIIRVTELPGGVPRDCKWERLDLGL

Molecule | Kd [1] | (H) G/D (fold bias) [1] | (C) hLTBP3, Matrix-associated proTGFb1 (KD) [2] | (E) hGARP, Cell-associated proTGFb1 (KD) [3] | (B) hLTBP1, Matrix-associated proTGFb1 (KD) [4] | (F) hLRRC33, Cell-associated proTGFb1 (KD) [5] | Kd [6] | Kd [7, 8] | Kd [7, 9] | (H) G/D (fold bias) [7]
B1 | 3.89 nM | 22.897 fold | 1.83E−10 | 7.01E−09 | 1.57E−10 | 7.75E−10 | 0.17 nM | 0.72 nM | 2.45 nM | 3.40 fold
B2 | 5.95 nM | 34.47 fold | 1.56E−10 | 1.12E−08 | 1.89E−10 | 6.92E−10 | 0.172 nM | 2.83 nM | 4.75 nM | 1.68 fold
